# Measured values reported in US20050065327A1.
# What was measured:
# [1] = target: native (naturally occurring) human IL-13 released from HDLM-2 cells (human) (UniProt P35225); assay: cell-based or functional assay
# [2] = target: human IL-13 (recombinant, bacterially derived, Peprotech) (human) (UniProt P35225); assay: cell-based or functional assay
# Sequence of human IL-13 (recombinant, bacterially derived, Peprotech) (human) (P35225 other isoform, or with tags, fused parts or gaps): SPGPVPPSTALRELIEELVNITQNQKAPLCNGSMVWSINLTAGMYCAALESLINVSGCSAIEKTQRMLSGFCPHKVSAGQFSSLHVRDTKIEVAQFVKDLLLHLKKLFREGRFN
# Sequence of native (naturally occurring) human IL-13 released from HDLM-2 cells (human) (P35225 other isoform, or with tags, fused parts or gaps): as above
Substance,"IC50, HDLM-2 cell proliferation assay [1] [nM]","IC50, TF-1 cell proliferation assay [2] [nM]","IC50, eotaxin release from NHLF [2] [nM]"
"JES10-5A2 (commercial anti-human IL-13 antibody, rat IgG1, Biosource)",10.7,0.471,0.623
"B-B13 (commercial anti-human IL-13 antibody, mouse IgG1, Euroclone)",16.7,1.02,0.219
